Source: the Human Domainome abundance scans (Beltran et al. 2025)

B1: Zinc finger homeobox protein 4, residues 2183 to 2238; numbered along this chain, Q86UP3 (parent)
chain: SSRTRFTDYQLRVLQDFFDTNAYPKDDEIEQLSTVLNLPTRVIVVWFQNARQKARK

Variants of: B1
Assay: abundance fitness (aPCA) (normalised: wild type 0, dead -1); higher = more abundant; growth selection in yeast, the domain comes from the species named
Settings: Homo sapiens

Abundance fitness: each site, then its substitutions
T40: I 0.591; P -0.254; N -0.546; S -0.213
V42: S -0.077; A -0.093; R -0.2; K -0.236; N -0.345; P -0.194; D 0.141; C -0.263; T 0.043; F -0.415; Q -0.143; H 0.03; G -0.065; L -0.155; W -0.039; I 0.043; E 0.23; Y -0.18
V44: K -0.22; G -0.059; D -0.064; E 0.125; H -0.027; I 0.05; A -0.067; C 0.028
L32: Y -0.118; Q -0.751; K -0.735; M -0.019; C -0.548; I -0.156; R -0.861; V -0.235; N -0.683; W -0.399; S -0.924; A -0.659; D -0.531; H -1.12; G -0.973; T -1.05; E -0.723; F -0.207; P -0.797
I43: K -1.22; T 0.032; W -1.07; D -0.881; A -0.259; Q -0.964; P -0.869; V -0.12; S -0.766; M -0.394; H -1.18; L -0.059; C -0.193; R -1; E -0.69; G -1.01; N -1.01; F -0.412
N37: G -0.126; C -0.358; D -0.061; T 0.111; I -0.172; L -0.156; P -0.847; A -0.02; R -0.12; V -0.056; Q -0.137; M -0.202; W -0.569; K 0.042; S -0.109; F -0.308; Y -0.595; H -0.282
I29: Y 0.004; F -0.152; H -0.633; E -0.614; Q -0.447; D -0.876; A -0.266; P -1.23; C -0.015; T -0.256; K -0.576; V -0.174; S -0.702; N -0.809; R -0.692; L -0.023; W -0.352; G -0.88; M -0.03
P24: V -0.501; Y -0.746; Q -0.703; L -0.419; T -0.698; N -0.945; M -0.596; W -0.593; R -0.657
P39: H 0.154; W -1.22; G 0.014; R -0.097; L -0.962; T -0.041; D 0.093; A -0.153; E -0.037; M -0.69; V -0.766; Y -0.701; K -0.245; N -0.127; Q -0.095; C -0.063; S -0.062; F -1.1
E28: D 0.031; Q 0.061; N -0.287; M -0.507; V -0.34; I -0.741; G -0.207; Y -0.341; S -0.18; C -0.18; T -0.069; R -0.25; W -0.596; F -0.448; H -0.188; A -0.036; K -0.011
V35: T 0.108; R 0.06; W -0.202; Y -0.506; E -0.153; K 0.157; Q 0.004; F -0.206; G 0.043; N -0.427; L -0.004; D -0.222; M 0.058; P -0.297; H -0.006; I -0.207; C 0.02; S 0.03
K25: N -0.156; F -0.467; C -0.111; G -0.072; P -0.244; E -0.455; L -0.233; S -0.025; Y -0.76; M -0.323; W -0.387; A -0.203; R -0.047; V -0.068; D -0.177
S33: R -0.486; H -0.003; E -0.209; I -1.04; K -0.82; M -0.35; T -0.005; P -0.675; G -0.23; Y -0.749; C -0.357; D -0.884; F -0.897; V -0.595; L -0.946; N -0.257; Q -0.134
T34: M -0.145; G -0.134; K 0.045; R -0.069; Q -0.128; A -0.049; H 0.049; C -0.106; P -0.347; E -0.165; N -0.183; L -0.004; Y -0.061; S -0.066; I -0.256; D -0.162; W -0.244; F 0.062
D26: P -0.193; C -0.255; E -0.163; A 0.003; M -0.056; S -0.049; Y -0.234; G 0.005; R -0.05; W -0.047; H -0.021; Q -0.031; L -0.257; K 0.067; F -0.087; T -0.071; N -0.114; I -0.427; V -0.048
Q31: H -0.263; V -0.206; M -0.212; W -0.184; G -0.098; A -0.188; C -0.221; N -0.444; K 0.037; Y -0.085; I -0.316; F -0.028; T -0.252; S -0.042; P -0.343; R -0.023; L -0.278
L38: V -0.051; W -0.735; F -0.277; R -0.416; A -0.019; I -0.061; T -0.007; C 0.018; Y -0.431; D -0.709; H -0.305; E -0.366; M -0.067; N -0.914; K -0.357; Q -0.131; G -1.04; S -0.275; P -0.913
R41: Q 0; N 0.103; S 0.083; C -0.002; E -0.181; D 0.204; K 0.033; W -0.335; M -0.081; P -0.143; V -0.008; T 0.06; H -0.196; A 0.069; Y 0.017; L -0.059
L36: R -0.811; T 0.045; G -0.318; E -1.19; Q -0.877; A -0.098; H -0.701; M -0.157; D -0.933; N -0.801; Y -0.8; C 0.008; F -0.407; V 0.03; W -0.842; K -0.794
E30: Y -0.366; H 0.008; W -0.366; Q 0.175; R 0.031; P -0.463; T -0.046; D 0.08; G 0.059; N -0.166; V -0.119; C -0.18; L -0.057; M 0.201; I -0.221; F -0.132; K -0.154
D27: R -0.038; S -0.009; V -0.375; N 0.001; G 0.162; T -0.256; A -0.378; Q 0.08; M -0.012; H 0.048; L -0.004; Y -0.171; F 0.019; K -0.029
